These results are taken from patent US20130225506A1 (POLYPHOR, published 2013).

Numbered stars: 1 amine (or outer) side, 2 acyl side, 3 side chain; on linkers, the order of the positions; unused ones are H or OH. Square brackets hold non-standard residues; d marks the D form. Primed or numbered codes have the meaning given here. Pro((4S)NHBz) = proline with (4S)-NHBz, O=C(N[C@H]1C[C@@H](C(=O)[*:2])N([*:1])C1)c1ccccc1; (4S)Hyp(Bn) = O=C([C@@H]1C[C@H](OCc2ccccc2)CN1[*:1])[*:2]; dPro(cis-4-NH2) = N[C@H]1CN[C@@H](C(=O)O)C1; dPro(4S-NH2) = N[C@@H]1CN[C@@H](C(=O)O)C1; Oic = O=C(O)[C@@H]1C[C@@H]2CCCC[C@@H]2N1; 1Nal = N[C@@H](Cc1cccc2ccccc12)C(=O)O; 2Nal = N[C@@H](Cc1ccc2ccccc2c1)C(=O)O; Pro(3S-OH) = O=C(O)[C@H]1NCC[C@@H]1O; hArg = N=C(N)NCCCC[C@H](N)C(=O)O; 3Pal = N[C@@H](Cc1cccnc1)C(=O)O; Tic = O=C(O)[C@@H]1Cc2ccccc2CN1; d3Pal = N[C@H](Cc1cccnc1)C(=O)O; dHyp = O=C(O)[C@H]1C[C@H](O)CN1; Agb = N=C(N)NCC[C@H](N)C(=O)O; Chg = N[C@H](C(=O)O)C1CCCCC1; dDab = NCC[C@@H](N)C(=O)O; dPip′ = not defined here; Dab = NCC[C@H](N)C(=O)O; Pip′ = not defined here; Abu = CC[C@H](N)C(=O)O; Mor = not defined here

The target in the experiment is chemokine receptor CXCR7 (UniProt P25106 1-362, limits assumed). As to the kind of experiment: cell-based or functional assay.
chemokine receptor CXCR7, sequence (P25106 whole entry): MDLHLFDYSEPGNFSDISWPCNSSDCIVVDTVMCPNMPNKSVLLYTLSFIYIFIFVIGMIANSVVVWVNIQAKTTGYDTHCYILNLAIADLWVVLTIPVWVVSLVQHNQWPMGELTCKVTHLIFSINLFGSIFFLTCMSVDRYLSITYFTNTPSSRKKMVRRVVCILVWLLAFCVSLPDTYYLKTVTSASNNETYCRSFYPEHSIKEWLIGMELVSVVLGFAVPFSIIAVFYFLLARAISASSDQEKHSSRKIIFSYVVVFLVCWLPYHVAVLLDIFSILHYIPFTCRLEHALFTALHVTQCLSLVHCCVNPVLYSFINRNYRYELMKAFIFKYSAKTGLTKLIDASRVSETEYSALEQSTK

B1: cyclo(-Chg-^DArg-Arg-Trp-^DPro-Thr-) (peptide)
peptide: cyclo([Chg][dR]RW[dP]T)
SMILES: C[C@@H](O)[C@@H]1NC(=O)[C@H]2CCCN2C(=O)[C@H](Cc2c[nH]c3ccccc23)NC(=O)[C@H](CCCNC(=N)N)NC(=O)[C@@H](CCCNC(=N)N)NC(=O)[C@H](C2CCCCC2)NC1=O
In the case of B1, the “β-Arrestin EC50” value worked out at 6.7 nM.

B2: cyclo(-Trp-^DPhe-Trp-Arg-^DPro((4S)OH)-(4S)-Hyp(Bn)-) (peptide)
peptide: cyclo(W[dF]WR[dHyp][(4S)Hyp(Bn)])
SMILES: N=C(N)NCCC[C@@H]1NC(=O)[C@H](Cc2c[nH]c3ccccc23)NC(=O)[C@@H](Cc2ccccc2)NC(=O)[C@H](Cc2c[nH]c3ccccc23)NC(=O)[C@@H]2C[C@H](OCc3ccccc3)CN2C(=O)[C@H]2C[C@H](O)CN2C1=O
For the molecule B2, the “β-Arrestin EC50” value was 7.6 nM.

B3: cyclo(-Ile-^DArg-Arg-2Nal-^DPro-Pro((3S)OH)-) (peptide)
peptide: cyclo(I[dR]R[2Nal][dP][Pro(3S-OH)])
SMILES: CC[C@H](C)[C@@H]1NC(=O)[C@@H]2[C@@H](O)CCN2C(=O)[C@H]2CCCN2C(=O)[C@H](Cc2ccc3ccccc3c2)NC(=O)[C@H](CCCNC(=N)N)NC(=O)[C@@H](CCCNC(=N)N)NC1=O
On to B3, for which the “β-Arrestin EC50” value amounted to 76.8 nM.

B4: cyclo(-Trp-^DPhe-Trp-Arg-^DPro-Pro((4R)NH2)-) (peptide)
peptide: cyclo(W[dF]WR[dP][Pro((4R)NH2)])
B4: the “β-Arrestin EC50” value was 26.9 nM.

B5: cyclo(-Trp-^DPhe-Trp-Arg-^DPro-Pro((4S)NH2)-) (peptide)
peptide: cyclo(W[dF]WR[dP][Pro((4S)NH2)])
B5: the “β-Arrestin EC50” value was found to be 36.9 nM.

B6: cyclo(-Agb-^DPhe-Trp-Arg-^DPro((4R)NH2)-Tic-) (peptide)
peptide: cyclo([Agb][dF]WR[dPro(cis-4-NH2)][Tic])
SMILES: N=C(N)NCCC[C@@H]1NC(=O)[C@H](Cc2c[nH]c3ccccc23)NC(=O)[C@@H](Cc2ccccc2)NC(=O)[C@H](CCNC(=N)N)NC(=O)[C@@H]2Cc3ccccc3CN2C(=O)[C@H]2C[C@@H](N)CN2C1=O
As for B6, the “β-Arrestin EC50” value was 452 nM.

B7: cyclo(-hArg-^DPhe-Trp-Arg-^DPro((4R)NH2)-Tic-) (peptide)
peptide: cyclo([hArg][dF]WR[dPro(cis-4-NH2)][Tic])
SMILES: N=C(N)NCCCC[C@@H]1NC(=O)[C@@H]2Cc3ccccc3CN2C(=O)[C@H]2C[C@@H](N)CN2C(=O)[C@H](CCCNC(=N)N)NC(=O)[C@H](Cc2c[nH]c3ccccc23)NC(=O)[C@@H](Cc2ccccc2)NC1=O
With B7, the “β-Arrestin EC50” value is 12.2 nM.

B8: cyclo(-Ile-^DArg-Arg-Trp-^DPro((4R)NH2)-Thr-) (peptide)
peptide: cyclo(I[dR]RW[dPro(cis-4-NH2)]T)
SMILES: CC[C@H](C)[C@@H]1NC(=O)[C@H]([C@@H](C)O)NC(=O)[C@H]2C[C@@H](N)CN2C(=O)[C@H](Cc2c[nH]c3ccccc23)NC(=O)[C@H](CCCNC(=N)N)NC(=O)[C@@H](CCCNC(=N)N)NC1=O
Consider B8, for which the “β-Arrestin EC50” value stood at 948 nM.

B9: cyclo(-Trp-^DPhe-Trp-Arg-^DPro-Pro((4S)F)-) (peptide)
peptide: cyclo(W[dF]WR[dP][Pro((4S)F)])
As to B9, the “β-Arrestin EC50” value amounted to 119 nM.

B10: cyclo(-Arg-^DPhe-Trp-Arg-^DPro((4R)NH2)-Oic-) (peptide)
peptide: cyclo(R[dF]WR[dPro(cis-4-NH2)][Oic])
SMILES: N=C(N)NCCC[C@@H]1NC(=O)[C@@H]2C[C@@H]3CCCC[C@@H]3N2C(=O)[C@H]2C[C@@H](N)CN2C(=O)[C@H](CCCNC(=N)N)NC(=O)[C@H](Cc2c[nH]c3ccccc23)NC(=O)[C@@H](Cc2ccccc2)NC1=O
Consider B10, for which the “β-Arrestin EC50” value turned out to be 20.5 nM.

B11: cyclo(-His-^DTrp-His-Trp-^DPro-Pro((4S)NHBz)-) (peptide)
peptide: cyclo(H[dW]HW[dP][Pro((4S)NHBz)])
SMILES: O=C(N[C@H]1C[C@H]2C(=O)N[C@@H](Cc3c[nH]cn3)C(=O)N[C@H](Cc3c[nH]c4ccccc34)C(=O)N[C@@H](Cc3c[nH]cn3)C(=O)N[C@@H](Cc3c[nH]c4ccccc34)C(=O)N3CCC[C@@H]3C(=O)N2C1)c1ccccc1
As for B11, the “β-Arrestin EC50” value came out at 414 nM.

B12: cyclo(-Pip-^DPhe-Trp-Arg-^DPro((4R)NH2)-Tic-) (peptide)
peptide: cyclo([Pip′][dF]WR[dPro(cis-4-NH2)][Tic])
B12: the “β-Arrestin EC50” value is 882 nM.

B13: cyclo(-Trp-^D3Pal-Trp-Arg-^DPro((4R)NH2)-Tic-) (peptide)
peptide: cyclo(W[d3Pal]WR[dPro(cis-4-NH2)][Tic])
SMILES: N=C(N)NCCC[C@@H]1NC(=O)[C@H](Cc2c[nH]c3ccccc23)NC(=O)[C@@H](Cc2cccnc2)NC(=O)[C@H](Cc2c[nH]c3ccccc23)NC(=O)[C@@H]2Cc3ccccc3CN2C(=O)[C@H]2C[C@@H](N)CN2C1=O
For B13, the “β-Arrestin EC50” value is 6.1 nM.

B14: cyclo(-Trp-^DPhe-Trp-Arg-^DPro-Mor-) (peptide)
peptide: cyclo(W[dF]WR[dP][Mor])
modifications: reading uncertain; also: printed as cyclo(-Trp-^DPhe-Trp-Arg-^DPro-Mor-)
Turning to B14, the “β-Arrestin EC50” value came out at 132 nM.

B15: cyclo(-3Pal-^DPhe-Trp-Arg-^DPro((4R)NH2)-Tic-) (peptide)
peptide: cyclo([3Pal][dF]WR[dPro(cis-4-NH2)][Tic])
SMILES: N=C(N)NCCC[C@@H]1NC(=O)[C@H](Cc2c[nH]c3ccccc23)NC(=O)[C@@H](Cc2ccccc2)NC(=O)[C@H](Cc2cccnc2)NC(=O)[C@@H]2Cc3ccccc3CN2C(=O)[C@H]2C[C@@H](N)CN2C1=O
For B15, the “β-Arrestin EC50” value worked out at 5.1 nM.

B16: cyclo(-1Nal-^DArg-Arg-Trp-^DPro-Pro((3S)OH)-) (peptide)
peptide: cyclo([1Nal][dR]RW[dP][Pro(3S-OH)])
SMILES: N=C(N)NCCC[C@@H]1NC(=O)[C@@H](CCCNC(=N)N)NC(=O)[C@H](Cc2cccc3ccccc23)NC(=O)[C@@H]2[C@@H](O)CCN2C(=O)[C@H]2CCCN2C(=O)[C@H](Cc2c[nH]c3ccccc23)NC1=O
Consider B16, for which the “β-Arrestin EC50” value was 13.7 nM.

B17: cyclo(-Ile-^DArg-Arg-Trp-^DPip-Pro((3S)OH)-) (peptide)
peptide: cyclo(I[dR]RW[dPip′][Pro(3S-OH)])
For the molecule B17, the “β-Arrestin EC50” value is 8.2 nM.

B18: cyclo(-Arg-^DPhe-Trp-Arg-^DPro-(4S)-Hyp(Bn)-) (peptide)
peptide: cyclo(R[dF]WR[dP][(4S)Hyp(Bn)])
SMILES: N=C(N)NCCC[C@@H]1NC(=O)[C@@H]2C[C@H](OCc3ccccc3)CN2C(=O)[C@H]2CCCN2C(=O)[C@H](CCCNC(=N)N)NC(=O)[C@H](Cc2c[nH]c3ccccc23)NC(=O)[C@@H](Cc2ccccc2)NC1=O
In the case of B18, the “β-Arrestin EC50” value is 76.9 nM.

B19: cyclo(-Trp-^DPhe-Trp-Arg-^DPro((4R)NH2)-Oic-) (peptide)
peptide: cyclo(W[dF]WR[dPro(cis-4-NH2)][Oic])
SMILES: N=C(N)NCCC[C@@H]1NC(=O)[C@H](Cc2c[nH]c3ccccc23)NC(=O)[C@@H](Cc2ccccc2)NC(=O)[C@H](Cc2c[nH]c3ccccc23)NC(=O)[C@@H]2C[C@@H]3CCCC[C@@H]3N2C(=O)[C@H]2C[C@@H](N)CN2C1=O
Regarding B19, the “β-Arrestin EC50” value amounted to 20.9 nM.

B20: cyclo(-Ile-^DArg-Arg-Trp-^DPro((4S)OH)-Thr-) (peptide)
peptide: cyclo(I[dR]RW[dHyp]T)
modifications: not fully specified
For B20, the “β-Arrestin EC50” value is 632 nM.

B21: cyclo(-Ile-^DDab-Arg-Trp-^DPro-Thr-) (peptide)
peptide: cyclo(I[dDab]RW[dP]T)
SMILES: CC[C@H](C)[C@@H]1NC(=O)[C@H]([C@@H](C)O)NC(=O)[C@H]2CCCN2C(=O)[C@H](Cc2c[nH]c3ccccc23)NC(=O)[C@H](CCCNC(=N)N)NC(=O)[C@@H](CCN)NC1=O
In the case of B21, the “β-Arrestin EC50” value is 48.4 nM.

B22: cyclo(-Ile-^DArg-Dab-Trp-^DPro-Thr-) (peptide)
peptide: cyclo(I[dR][Dab]W[dP]T)
SMILES: CC[C@H](C)[C@@H]1NC(=O)[C@H]([C@@H](C)O)NC(=O)[C@H]2CCCN2C(=O)[C@H](Cc2c[nH]c3ccccc23)NC(=O)[C@H](CCN)NC(=O)[C@@H](CCCNC(=N)N)NC1=O
Turning to B22, the “β-Arrestin EC50” value was 87 nM.

B23: cyclo(-Abu-^DArg-Arg-Trp-^DPro-Thr-) (peptide)
peptide: cyclo([Abu][dR]RW[dP]T)
SMILES: CC[C@@H]1NC(=O)[C@H]([C@@H](C)O)NC(=O)[C@H]2CCCN2C(=O)[C@H](Cc2c[nH]c3ccccc23)NC(=O)[C@H](CCCNC(=N)N)NC(=O)[C@@H](CCCNC(=N)N)NC1=O
B23: the “β-Arrestin EC50” value came out at 330 nM.

B24: cyclo(-Arg-^DPhe-Trp-Arg-^DPro((4S)NH2)-Tic-) (peptide)
peptide: cyclo(R[dF]WR[dPro(4S-NH2)][Tic])
SMILES: N=C(N)NCCC[C@@H]1NC(=O)[C@@H]2Cc3ccccc3CN2C(=O)[C@H]2C[C@H](N)CN2C(=O)[C@H](CCCNC(=N)N)NC(=O)[C@H](Cc2c[nH]c3ccccc23)NC(=O)[C@@H](Cc2ccccc2)NC1=O
On to B24, for which the “β-Arrestin EC50” value was found to be 13.1 nM.

B25: cyclo(-Arg-^DPhe-Trp-hArg-^DPro((4R)NH2)-Tic-) (peptide)
peptide: cyclo(R[dF]W[hArg][dPro(cis-4-NH2)][Tic])
SMILES: N=C(N)NCCCC[C@@H]1NC(=O)[C@H](Cc2c[nH]c3ccccc23)NC(=O)[C@@H](Cc2ccccc2)NC(=O)[C@H](CCCNC(=N)N)NC(=O)[C@@H]2Cc3ccccc3CN2C(=O)[C@H]2C[C@@H](N)CN2C1=O
For the molecule B25, the “β-Arrestin EC50” value was 352 nM.

B26: cyclo(-Arg-^DPhe-Trp-Arg-^DPro((4R)NH2)-Tic-) (peptide)
peptide: cyclo(R[dF]WR[dPro(cis-4-NH2)][Tic])
SMILES: N=C(N)NCCC[C@@H]1NC(=O)[C@@H]2Cc3ccccc3CN2C(=O)[C@H]2C[C@@H](N)CN2C(=O)[C@H](CCCNC(=N)N)NC(=O)[C@H](Cc2c[nH]c3ccccc23)NC(=O)[C@@H](Cc2ccccc2)NC1=O
On to B26, for which the “β-Arrestin EC50” value was 248 nM.

B27: cyclo(-Val-^DArg-Arg-Trp-^DPro-Thr-) (peptide)
peptide: cyclo(V[dR]RW[dP]T)
SMILES: CC(C)[C@@H]1NC(=O)[C@H]([C@@H](C)O)NC(=O)[C@H]2CCCN2C(=O)[C@H](Cc2c[nH]c3ccccc23)NC(=O)[C@H](CCCNC(=N)N)NC(=O)[C@@H](CCCNC(=N)N)NC1=O
Take B27: the “β-Arrestin EC50” value amounted to 271 nM.

B28: cyclo(-Trp-^DPhe-Trp-Arg-^DPro((4R)NH2)-(4S)-Hyp(Bn)-) (peptide)
peptide: cyclo(W[dF]WR[dPro(cis-4-NH2)][(4S)Hyp(Bn)])
SMILES: N=C(N)NCCC[C@@H]1NC(=O)[C@H](Cc2c[nH]c3ccccc23)NC(=O)[C@@H](Cc2ccccc2)NC(=O)[C@H](Cc2c[nH]c3ccccc23)NC(=O)[C@@H]2C[C@H](OCc3ccccc3)CN2C(=O)[C@H]2C[C@@H](N)CN2C1=O
B28: the “β-Arrestin EC50” value was 6.6 nM.
